According to patent US20150239981A1:

Experiments:
FcγRIIA-R131 (human) = FcγRIIA-R131 (human) (UniProt P12318); experiment: SPR Biacore T100, antibody immobilised, receptor as analyte 0-12800 nM, steady state fit
FcγRIIIA-V158 (human) = FcγRIIIA-V158 (human) (UniProt P08637); experiment: as above
FcγRI (human) [1] = molecular target: FcγRI (human) (UniProt P12314); experiment: SPR Biacore T100, FcγRI captured by pentaHis antibody, antibody as analyte 0-100 nM
Target sequence in this assay (P12314 16-288 limits assumed): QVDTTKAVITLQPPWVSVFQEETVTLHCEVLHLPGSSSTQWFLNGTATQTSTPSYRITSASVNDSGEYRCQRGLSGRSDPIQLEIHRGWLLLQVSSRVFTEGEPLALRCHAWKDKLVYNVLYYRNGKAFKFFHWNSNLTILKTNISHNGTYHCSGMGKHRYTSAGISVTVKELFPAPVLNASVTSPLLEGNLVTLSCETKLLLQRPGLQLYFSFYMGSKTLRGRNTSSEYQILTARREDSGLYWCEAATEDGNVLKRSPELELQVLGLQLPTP

FcγRI (human) [2] = molecular target: FcγRI (human) (UniProt P12314); experiment: SPR
Target sequence in this assay (P12314 16-288): as the sequence (P12314 16-288 limits assumed) above

Chain of FcγRIIA-R131 (human) (P12318 36-218 H167R limits assumed): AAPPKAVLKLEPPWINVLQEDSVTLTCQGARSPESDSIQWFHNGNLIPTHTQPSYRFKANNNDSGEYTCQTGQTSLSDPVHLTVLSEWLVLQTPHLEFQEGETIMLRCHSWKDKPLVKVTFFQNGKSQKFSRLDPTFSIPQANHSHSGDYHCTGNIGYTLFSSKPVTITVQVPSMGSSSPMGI
Chain of IgG4 SPLE (antibody not named, Tables 2A and 2B) (constant): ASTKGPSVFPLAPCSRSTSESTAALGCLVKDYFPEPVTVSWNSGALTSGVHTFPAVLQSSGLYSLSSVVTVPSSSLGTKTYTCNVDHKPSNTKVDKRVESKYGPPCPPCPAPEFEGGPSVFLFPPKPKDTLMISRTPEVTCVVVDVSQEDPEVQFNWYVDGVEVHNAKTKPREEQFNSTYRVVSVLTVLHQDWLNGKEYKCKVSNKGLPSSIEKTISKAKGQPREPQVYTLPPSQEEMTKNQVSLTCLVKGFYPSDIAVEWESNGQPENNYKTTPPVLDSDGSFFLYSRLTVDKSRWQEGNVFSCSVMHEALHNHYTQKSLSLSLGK
Chain of FcγRIIIA-V158 (human) (P08637 17-208 F176V limits assumed): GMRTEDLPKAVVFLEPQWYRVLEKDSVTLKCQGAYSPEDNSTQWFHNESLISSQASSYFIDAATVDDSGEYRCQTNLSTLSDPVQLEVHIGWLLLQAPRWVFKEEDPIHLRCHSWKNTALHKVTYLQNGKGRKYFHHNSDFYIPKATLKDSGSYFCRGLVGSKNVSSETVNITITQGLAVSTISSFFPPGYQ

WT IgG1 (antibody not named, Tables 2A and 2B)
Kd (FcγRIIA-R131 (human)): 2000 nM
Kd (FcγRIIIA-V158 (human)): 700 nM
Kd (FcγRI (human) [1]): 5 nM

GA P329G
Kd (FcγRI (human) [2]): 12 nM

IgG4 Wt
Kd (FcγRI (human) [2]): 14 nM

CD20 antibody GA101 IgG1 P329G
Kd (FcγRI (human) [1]): 5.7 nM

CD20 antibody GA101 IgG1 wildtype
Kd (FcγRI (human) [1]): 4.6 nM

IgG4 SPLE (antibody not named, Tables 2A and 2B)
Kd (FcγRIIA-R131 (human)): 10000 nM
